The values that follow are results of earlier work, collected in paper PMC11128129.

This data set deals with PCSK9 (Homo sapiens) (UniProt Q8NBP7).
Chain of PCSK9 (Homo sapiens) (Q8NBP7 153-692): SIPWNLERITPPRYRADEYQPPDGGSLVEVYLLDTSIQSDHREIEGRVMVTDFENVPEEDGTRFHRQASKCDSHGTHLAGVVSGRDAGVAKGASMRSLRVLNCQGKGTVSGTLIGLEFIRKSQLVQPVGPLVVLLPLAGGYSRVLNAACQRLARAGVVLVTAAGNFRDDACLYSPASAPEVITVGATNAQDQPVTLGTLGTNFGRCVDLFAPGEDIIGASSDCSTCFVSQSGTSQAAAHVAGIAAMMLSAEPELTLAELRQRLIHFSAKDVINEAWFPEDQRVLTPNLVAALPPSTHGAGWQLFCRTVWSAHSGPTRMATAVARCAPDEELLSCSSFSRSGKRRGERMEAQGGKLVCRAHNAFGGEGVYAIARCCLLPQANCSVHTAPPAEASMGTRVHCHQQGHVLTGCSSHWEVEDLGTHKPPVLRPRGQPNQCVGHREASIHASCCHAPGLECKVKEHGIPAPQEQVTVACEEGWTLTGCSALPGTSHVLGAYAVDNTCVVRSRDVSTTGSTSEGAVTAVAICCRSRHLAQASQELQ

As a reminder, the Kd is the concentration at which binding is half-saturated. With LDLR (from UniProt P01130), the Kd was 719 nM.
